From the supplement of paper PMC7877785
± gives the uncertainty stated by the source.

Test: self-splicing fitness, log relative to wild type (ln ratio); higher = more splicing; Tetrahymena group I intron in knt gene, E. coli kanamycin selection, DiMSum; sequences stand for … in CUCUCU…GGAGGGAAAAGUUAUCAGGCAUGCACCUGGUAGCUAGUCUUUAAACCAAUAGAUUGCAUCGGUUUAAAAGGCAAGACCGUCAAAUUGCGGGAAAGGGGUCAACAGCCGUUCAGUACCAAGUCUCAGGGGAAACUUUGAGAUGGCCUUGCAAAGGGUAUGGUAAUAAGCUGACGGACAUGGUCCUAACCACGCAGCCAAGUCCUAAGUCAACAGAUCUUCUGUUGAUAUGGAUGCAGUUCACAGACUAAAUGUCGGUCGGGGAAGAUGUAUUCUUCUCAUAAGAUAUAGUCGGACCUCUCCUUAAUGGGAGCUAGCGGAUGAAGUGAUGCAACACUGGAGCCGCUGGGAACUAAUUUGUAUGCGAAAGUAUAUUGAUUAGUUUUGGAGUACUCGUGGUCG
Summary of the method: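 DiMSum derived fitness as the error-weighted combination of fold changes across replicates, kanamycin versus no kanamycin, normalised to wild type. E. coli BL21(DE3) held the library, which randomised all eight P1ex-region intron nucleotides within the knt kanamycin-resistance gene on pET-22b(+). Six replicate transformations grew overnight at 37°C or 30°C on LB agar with or without 25 μg/mL kanamycin, also containing 100 μg/mL carbenicillin, 50 μM IPTG and 0.2% rhamnose, and pooled colonies were amplicon-sequenced on an Illumina HiSeq 2500.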

Row | Sequence | self-splicing fitness (ln) (30 °C) | self-splicing fitness (ln) (37 °C)
1 | ACCGAGCAAUAUUACGGGGA | -1.87 ± 0.1 | -1.65 ± 0.1
2 | ACCGAGCAAUAUUACGGGGG | -3.8 ± 0.18 | -3.18 ± 0.2
3 | ACCGAGCAAUAUUACGGGGU | -3.7 ± 0.17 | -2.46 ± 0.17
4 | ACCGAGCAAUAUUACGGUAU | -3.76 ± 0.2 | -1.81 ± 0.14
5 | ACCGAGCAAUAUUACGUAGC | -3.46 ± 0.16 | -1.61 ± 0.15
6 | ACCGAGCAAUAUUACGUUCC | -2.7 ± 0.26 | -1.66 ± 0.23
7 | ACCGAGCAAUAUUACGUUUA | -3.4 ± 0.27 | -2.39 ± 0.18
8 | ACCUAGCAAUAUUACGAAGA | -2.01 ± 0.19 | -1.77 ± 0.13
9 | ACCUAGCAAUAUUACGACAG | -2 ± 0.089 | -1.34 ± 0.12
10 | ACCUAGCAAUAUUACGACGG | -1.3 ± 0.089 | -0.541 ± 0.14
11 | ACCUAGCAAUAUUACGAUAC | -3.47 ± 0.25 | -1.65 ± 0.2
12 | ACCUAGCAAUAUUACGAUUU | -0.879 ± 0.064 | -0.0104 ± 0.079
13 | ACCUAGCAAUAUUACGCAGA | -2.23 ± 0.09 | -1.11 ± 0.082
14 | ACCUAGCAAUAUUACGCGGA | -1.04 ± 0.085 | -0.0825 ± 0.086
15 | ACCUAGCAAUAUUACGCUUA | -1.73 ± 0.11 | -0.883 ± 0.1
16 | ACCUAGCAAUAUUACGCUUG | -3.5 ± 0.16 | -2.04 ± 0.16
17 | ACCUAGCAAUAUUACGGACU | -0.424 ± 0.059 | 0.508 ± 0.069
18 | ACCUAGCAAUAUUACGGAUA | -1.65 ± 0.11 | -1.59 ± 0.099
19 | ACCUAGCAAUAUUACGGAUU | -1.23 ± 0.072 | 0.134 ± 0.088
20 | ACCUAGCAAUAUUACGGGUG | -1.47 ± 0.071 | -1.1 ± 0.087
21 | ACCUAGCAAUAUUACGGUGA | -1.86 ± 0.079 | -0.814 ± 0.074
22 | ACCUAGCAAUAUUACGUACA | -1.31 ± 0.14 | -0.964 ± 0.17
23 | ACCUAGCAAUAUUACGUAUC | -2.83 ± 0.083 | -1.85 ± 0.1
24 | ACCUAGCAAUAUUACGUCCA | -1.53 ± 0.098 | -0.615 ± 0.094
25 | ACCUAGCAAUAUUACGUCCC | -1.37 ± 0.26 | –
26 | ACCUAGCAAUAUUACGUCGA | -2.29 ± 0.093 | -0.834 ± 0.091

Row | Sequence | self-splicing fitness (ln) (30 °C) | self-splicing fitness (ln) (37 °C)
27 | ACCUAGCAAUAUUACGUGAC | -3.2 ± 0.12 | -0.892 ± 0.11
28 | ACCUAGCAAUAUUACGUGGC | -3.35 ± 0.21 | -2.02 ± 0.21
29 | ACCUAGCAAUAUUACGUUAG | -3.59 ± 0.14 | -2.69 ± 0.19
30 | ACCUAGCAAUAUUACGUUAU | -2.43 ± 0.11 | -1.53 ± 0.11
31 | ACGAAGCAAUAUUACGAACA | -1.62 ± 0.13 | -0.229 ± 0.11
32 | ACGAAGCAAUAUUACGAAGA | -3.07 ± 0.25 | -3.2 ± 0.37
33 | ACGAAGCAAUAUUACGAAUC | -3.29 ± 0.2 | -2.9 ± 0.25
34 | ACGAAGCAAUAUUACGACUA | -0.269 ± 0.083 | -0.184 ± 0.081
35 | ACGAAGCAAUAUUACGAGCA | -2.84 ± 0.14 | -1.32 ± 0.12
36 | ACGAAGCAAUAUUACGAUGG | -2.34 ± 0.13 | -1.17 ± 0.12
37 | ACGAAGCAAUAUUACGCAUU | -3.42 ± 0.12 | -1.95 ± 0.096
38 | ACGAAGCAAUAUUACGCCCG | -0.0902 ± 0.13 | -0.0289 ± 0.14
39 | ACGAAGCAAUAUUACGCGAG | -1.48 ± 0.12 | -0.723 ± 0.11
40 | ACGAAGCAAUAUUACGCGGC | -2.63 ± 0.35 | -2.22 ± 0.24
41 | ACGAAGCAAUAUUACGCGUC | -3.76 ± 0.21 | -1.91 ± 0.19
42 | ACGAAGCAAUAUUACGCUCU | -1.35 ± 0.094 | -0.15 ± 0.1
43 | ACGAAGCAAUAUUACGGACA | -0.643 ± 0.14 | -0.915 ± 0.15
44 | ACGAAGCAAUAUUACGGACU | 0.0455 ± 0.045 | 0.53 ± 0.065
45 | ACGAAGCAAUAUUACGGAUG | -2.82 ± 0.13 | -1.44 ± 0.11
46 | ACGAAGCAAUAUUACGGCAA | -1.04 ± 0.13 | -0.678 ± 0.13
47 | ACGAAGCAAUAUUACGGGAC | -4.36 ± 0.24 | -2.68 ± 0.18
48 | ACGAAGCAAUAUUACGGUGC | -4.82 ± 0.27 | -3.17 ± 0.2
49 | ACGAAGCAAUAUUACGGUUG | -2.29 ± 0.07 | -1.31 ± 0.081
50 | ACGAAGCAAUAUUACGUACA | -2.13 ± 0.13 | -1.06 ± 0.12
51 | ACGAAGCAAUAUUACGUCUC | -3.62 ± 0.12 | -1.55 ± 0.087
52 | ACGAAGCAAUAUUACGUGAG | -0.888 ± 0.056 | -1.14 ± 0.087

Row | Sequence | self-splicing fitness (ln) (30 °C) | self-splicing fitness (ln) (37 °C)
53 | ACGAAGCAAUAUUACGUGGC | -2.97 ± 0.11 | -2.04 ± 0.14
54 | ACGAAGCAAUAUUACGUUUU | -4.13 ± 0.16 | -1.8 ± 0.11
55 | ACGCAGCAAUAUUACGAAGA | – | -1.43 ± 0.26
56 | ACGCAGCAAUAUUACGCCUA | -0.946 ± 0.088 | 0.0129 ± 0.093
57 | ACGCAGCAAUAUUACGCUCG | -2.56 ± 0.12 | -1.67 ± 0.16
58 | ACGCAGCAAUAUUACGGACA | -1.29 ± 0.13 | -1.13 ± 0.14
59 | ACGCAGCAAUAUUACGGAGA | -2.66 ± 0.3 | -2.41 ± 0.2
60 | ACGCAGCAAUAUUACGGCCU | 0.271 ± 0.063 | 0.881 ± 0.091
61 | ACGCAGCAAUAUUACGGCUG | -3.03 ± 0.16 | -3.01 ± 0.22
62 | ACGCAGCAAUAUUACGGUAC | -1.03 ± 0.18 | -2.48 ± 0.45
63 | ACGCAGCAAUAUUACGGUUC | -3.63 ± 0.22 | -1.89 ± 0.15
64 | ACGCAGCAAUAUUACGUACC | -1.46 ± 0.24 | -0.295 ± 0.26
65 | ACGCAGCAAUAUUACGUACG | -2.93 ± 0.15 | -0.983 ± 0.13
66 | ACGCAGCAAUAUUACGUCCU | -0.15 ± 0.058 | 0.354 ± 0.07
67 | ACGCAGCAAUAUUACGUCGG | -1.23 ± 0.067 | -1.14 ± 0.1
68 | ACGCAGCAAUAUUACGUCUU | -1.36 ± 0.065 | -1.27 ± 0.083
69 | ACGCAGCAAUAUUACGUGAC | -3.45 ± 0.25 | -2.3 ± 0.21
70 | ACGCAGCAAUAUUACGUGCG | -3.58 ± 0.13 | -2.85 ± 0.15
71 | ACGCAGCAAUAUUACGUUUA | -2.58 ± 0.12 | -1.42 ± 0.095
72 | ACGGAGCAAUAUUACGAAGC | -4.24 ± 0.39 | -2.4 ± 0.18
73 | ACGGAGCAAUAUUACGAUAA | -3.89 ± 0.23 | -2.72 ± 0.21
74 | ACGGAGCAAUAUUACGAUCG | -0.961 ± 0.088 | -1.14 ± 0.14
75 | ACGGAGCAAUAUUACGAUUG | -3.04 ± 0.25 | -1.43 ± 0.22
76 | ACGGAGCAAUAUUACGCCCG | – | 0.0539 ± 0.32
77 | ACGGAGCAAUAUUACGCGAG | -2.86 ± 0.13 | -1.35 ± 0.13
